According to patent US20030088075A1 (Kyowa Kirin, published 2003):

Experiments:
[1] = molecular target: T1, soluble human VEGF receptor Flt-1 7N (human, UniProt P17948 27-750); experiment: hybridoma culture supernatant; inhibition of 125I-VEGF (3 ng/ml) binding to coated Flt-1 7N
T1 construct: range 1-750; Secreted from baculovirus-infected High Five insect cells and purified on heparin-Sepharose; also called Flt 7N; soluble human Flt-1 7N
Method: (§1) Methanol was dispensed in 100 μl portions into wells of a 96 well MultiScreen-IP Plate (manufactured by Millipore) to give hydrophilic nature to the PVDF membrane on the bottom of the plate. After washing with water, the soluble human VEGF receptor Flt-1 7N diluted with PBS to a concentration of 1.6 μg/ml was dispensed in 50 μl/well portions and then allowed to stand overnight at 4° C. for its adsorption. After washing, PBS containing 1% bovine serum albumin (BSA) is dispensed in 50 μl/well portions and the reaction was carried out at room temperature for 1 hour to block the remained active groups. After washing with PBS, each hybridoma culture supernatant or a purified monoclonal antibody diluted with 1% BSA-PBS containing 0.5 M NaCl (0.01 to 7.29 μg/ml) was dispensed in 50 μl/well portions and then 3 ng/ml of ¹²⁵I-labeled human VEGF (manufactured by Amersham) was dispensed in 50 μl/well portions, subsequently carrying out the reaction at room temperature for 1.5 hours. After washing with 0 05% Tween-PBS, the wells were dried at 50° C., and Microscinti-0 (manufactured by Packard) was dispensed in 30 μl/well portions to measure the radioactivity of the ¹²⁵I-labeled human VEGF linked to each well using Top Count (manufactured by Packard).

[2] = molecular target: T1, soluble human VEGF receptor Flt-1 7N; experiment: purified antibody; inhibition of 125I-VEGF binding to coated Flt-1 7N
Method: as §1

[3] = molecular target: T2, soluble human VEGF receptor KDR 7N (human, UniProt P35968 20-757); experiment: ELISA, antigen coated at 4 µg/ml
T2 construct: range 20-757; Purity 70 to 80%; not shown: two amino acid residues derived from a linker
T2 sequence (P35968 20-757): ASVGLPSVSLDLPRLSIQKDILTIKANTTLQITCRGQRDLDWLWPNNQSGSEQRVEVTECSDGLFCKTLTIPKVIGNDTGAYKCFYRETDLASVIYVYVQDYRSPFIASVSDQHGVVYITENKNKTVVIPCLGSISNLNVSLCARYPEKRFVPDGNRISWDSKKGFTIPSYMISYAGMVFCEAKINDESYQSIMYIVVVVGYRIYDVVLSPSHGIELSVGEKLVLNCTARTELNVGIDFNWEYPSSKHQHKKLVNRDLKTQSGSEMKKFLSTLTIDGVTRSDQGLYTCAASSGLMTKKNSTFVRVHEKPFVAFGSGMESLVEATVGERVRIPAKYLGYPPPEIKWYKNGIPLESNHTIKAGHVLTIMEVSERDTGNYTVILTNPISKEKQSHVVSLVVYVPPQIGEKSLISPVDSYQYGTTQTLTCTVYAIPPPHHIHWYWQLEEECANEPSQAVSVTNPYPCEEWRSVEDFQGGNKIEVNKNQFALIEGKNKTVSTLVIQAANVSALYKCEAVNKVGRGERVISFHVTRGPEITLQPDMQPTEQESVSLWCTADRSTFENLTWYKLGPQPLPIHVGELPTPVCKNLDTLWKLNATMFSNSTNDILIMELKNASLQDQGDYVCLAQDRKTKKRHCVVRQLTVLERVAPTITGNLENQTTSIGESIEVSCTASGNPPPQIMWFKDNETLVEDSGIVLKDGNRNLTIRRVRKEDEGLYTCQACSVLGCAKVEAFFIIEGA
Method: First, the reactivity of anti-human VEGF receptor Fit-i mouse monoclonal antibodies KM1732 and KM1750 and anti-human VEGF receptor Flt-1 human chimeric antibodies KM2532 and KM2550 was compared using an immunoassay method. Each of Flt-1 7N, Flt-1 3N, Flt-1 2N, Flt-1 7N.K2 and KDR 7N diluted to 4 μg/ml with PBS was dispensed in 50 μl portions into wells of a 96 well plate for EIA (manufactured by Greiner) and allowed to stand overnight at 4° C. for its adsorption. After washing the plate with PBS, 100 μl of 1% BSA-PBS was added to each well, and the remaining active groups was blocked by carrying out the reaction at room temperature for 1 hour. After discarding 1% BSA-PBS, each of the purified anti-human VEGF receptor Flt-1 mouse monoclonal antibodies KM1732 and KM1750 or purified anti-human VEGF receptor Flt-1 human chimeric antibodies KM2532 and KM2550, having a concentration of from 0.1 μg/ml, was dispensed in 50 μl portions into the resulting wells to carry out the reaction at room temperature for 1 hour.

[4] = molecular target: T3, human VEGF receptor Flt-1 expressed on cells (human, UniProt P17948 27-1338); experiment: purified antibody; inhibition of 125I-VEGF binding to NIH3T3-Flt-1 cells
T3 construct: whole, on cells; also called NIH3T3-Flt-1; human VEGF receptor Flt-1 expression cells
T3 sequence (P17948 27-1338): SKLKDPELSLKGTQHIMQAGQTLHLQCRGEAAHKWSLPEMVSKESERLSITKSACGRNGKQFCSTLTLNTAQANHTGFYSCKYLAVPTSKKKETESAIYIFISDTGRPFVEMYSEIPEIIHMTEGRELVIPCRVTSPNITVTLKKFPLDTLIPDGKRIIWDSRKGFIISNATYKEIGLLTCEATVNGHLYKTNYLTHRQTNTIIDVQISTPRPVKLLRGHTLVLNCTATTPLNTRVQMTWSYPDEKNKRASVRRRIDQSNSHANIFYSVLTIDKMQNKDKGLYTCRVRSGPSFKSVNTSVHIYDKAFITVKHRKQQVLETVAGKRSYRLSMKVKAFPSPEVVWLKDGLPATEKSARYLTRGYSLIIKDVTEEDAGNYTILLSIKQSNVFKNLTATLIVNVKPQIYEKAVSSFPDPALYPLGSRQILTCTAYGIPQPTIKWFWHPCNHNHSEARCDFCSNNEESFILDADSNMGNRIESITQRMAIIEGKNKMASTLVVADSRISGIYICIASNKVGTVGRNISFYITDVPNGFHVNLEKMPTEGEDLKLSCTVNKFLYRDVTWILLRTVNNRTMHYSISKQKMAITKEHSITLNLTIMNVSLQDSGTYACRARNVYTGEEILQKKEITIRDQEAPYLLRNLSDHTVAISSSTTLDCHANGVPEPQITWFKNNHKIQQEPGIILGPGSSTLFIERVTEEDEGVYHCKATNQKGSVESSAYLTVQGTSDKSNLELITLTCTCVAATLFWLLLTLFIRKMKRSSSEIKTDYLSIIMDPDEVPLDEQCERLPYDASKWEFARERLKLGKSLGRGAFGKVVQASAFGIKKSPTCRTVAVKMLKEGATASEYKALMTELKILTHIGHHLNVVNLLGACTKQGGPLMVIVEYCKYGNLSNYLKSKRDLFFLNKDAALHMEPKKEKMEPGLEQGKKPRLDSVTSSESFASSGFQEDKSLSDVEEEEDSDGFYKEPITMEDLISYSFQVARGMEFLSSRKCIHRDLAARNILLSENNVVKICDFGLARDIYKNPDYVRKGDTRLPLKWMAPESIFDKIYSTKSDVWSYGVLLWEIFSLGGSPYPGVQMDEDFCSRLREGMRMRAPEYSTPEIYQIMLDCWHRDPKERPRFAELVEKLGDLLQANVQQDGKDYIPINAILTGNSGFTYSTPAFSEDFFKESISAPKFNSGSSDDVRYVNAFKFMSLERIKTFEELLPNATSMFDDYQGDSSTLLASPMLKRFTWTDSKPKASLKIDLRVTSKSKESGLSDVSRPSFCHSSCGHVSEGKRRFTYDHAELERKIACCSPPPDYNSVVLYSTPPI
Method: PBS containing 1% bovine serum albumin (BSA) was dispensed in 100 μl portions into wells of a 96 well MultiScreen-HV Plate (manufactured by Millipore), the reaction was carried out at room temperature for 1 hour to block the active groups in the wells and then NIH3T3-Flt-1 cells suspended in 1% BSA-PBS containing 0.05% NaN₃ were dispensed in 5×10⁴ cells/well portions. After washing with 1% BSA-PBS, a purified monoclonal antibody (0.01 to 7.29 μg/ml) was dispensed in 50 μl/well portions and then 3 ng/ml of ¹²⁵I-labeled human VEGF (manufactured by Amersham) was dispensed in 50 μl/well portions and the reaction was carried out under cooling for 2 hours. After washing with PBS, the wells were dried at 50° C., and Microscinti-0 (manufactured by Packard) was dispensed in 30 μl/well portions to measure the radioactivity of the ¹²⁵I-labeled human VEGF linked to each well using Top Count (manufactured by Packard).

[5] = molecular target: T2, soluble human VEGF receptor KDR 7N; experiment: enzyme immunoassay, antigen coated at 10 µg/ml
Source text: Next, in order to examine binding specificity of anti-human VEGF receptor Flt-1 human CDR-grafted antibodies KM8550, KM8551, KM8552, KM8553, KM8554 and KM8555 and anti-human VEGF receptor Flt-1 human chimeric antibody KM2550, their reactivity for five soluble human VEGF receptor derivative proteins Flt-1 7N, Flt-1 3N, Flt-1 2N (WO 98/22616), Flt-1 7N.K2 [2(6-5) of Example 2] and KDR 7N [2(6-5) of Example 2] was examined using an enzyme immunoassay. Concentration of each soluble human VEGF receptor derivative protein to be adsorbed on a 96 well plate for EIA was fixed to 10 μg/ml (3-fold dilution), and the antibody concentration was fixed to 5 μg/ml.

T1 sequence (P17948 27-750 limits assumed, form in doubt): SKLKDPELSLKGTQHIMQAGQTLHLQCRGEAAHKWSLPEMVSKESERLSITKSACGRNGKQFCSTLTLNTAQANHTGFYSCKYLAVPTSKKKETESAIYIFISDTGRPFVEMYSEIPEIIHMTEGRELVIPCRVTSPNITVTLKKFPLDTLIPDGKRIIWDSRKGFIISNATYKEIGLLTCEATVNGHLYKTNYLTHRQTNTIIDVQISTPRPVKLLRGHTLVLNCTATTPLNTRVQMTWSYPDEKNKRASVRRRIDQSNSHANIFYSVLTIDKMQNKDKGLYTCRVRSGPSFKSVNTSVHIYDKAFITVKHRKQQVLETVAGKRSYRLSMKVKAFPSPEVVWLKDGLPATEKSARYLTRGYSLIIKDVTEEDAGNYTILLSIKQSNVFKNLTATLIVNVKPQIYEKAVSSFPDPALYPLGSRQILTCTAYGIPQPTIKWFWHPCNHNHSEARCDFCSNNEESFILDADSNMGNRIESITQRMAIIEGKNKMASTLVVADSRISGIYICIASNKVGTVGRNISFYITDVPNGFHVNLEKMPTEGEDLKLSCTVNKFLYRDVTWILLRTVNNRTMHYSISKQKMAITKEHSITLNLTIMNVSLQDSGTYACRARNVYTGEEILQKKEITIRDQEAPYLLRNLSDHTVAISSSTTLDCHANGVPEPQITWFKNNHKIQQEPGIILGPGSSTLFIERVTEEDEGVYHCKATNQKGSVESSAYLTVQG

Binder | binding result [3] | binding result [5] | further results
anti-human VEGF receptor Flt-1 mouse monoclonal antibody KM1750 (antibody, mouse IgG2b, V domains shown, mouse IgG2b; hybridoma FERM BP-5700; Used labeled with biotin on HUVEC; also called biotinated KM1750) VH: QAFLQQSGAELVRPGASVKMSCKASGYTFINYNMHWVKQTPRQGLEWIGAIFPGNGFTSYNQKFKGKATLTVDKSSSTVYMQLRSLTSEDSAVYFCARDGDYYFDYWGQGTTLTVSS VL: QIVLTQSPAIMSASLGEEITLTCSASSSVSYMHWYQQKSGTSPKLLIYRTSNLASGVPFRFSGSGSGTFYSLTISSVEAEDAADYYCHQWSMYTFGGGTKLEIK | no binding (tested: 0.1 µg/ml antibody) |  | inhibition ratio [1]: 66.3%; IC50 [2]: 2 µg/mL; IC50 [4]: 0.041 µg/mL
anti-human VEGF receptor Flt-1 human chimeric antibody KM2550 (antibody, V domains shown, V regions of KM1750 joined to the human antibody C regions of vector pKANTEX93; IgG type; also called p42550 [sic]) VH: QAFLQQSGAELVRPGASVKMSCKASGYTFINYNMHWVKQTPRQGLEWIGAIFPGNGFTSYNQKFKGKATLTVDKSSSTVYMQLRSLTSEDSAVYFCARDGDYYFDYWGQGTTLTVSS VL: QIVLTQSPAIMSASLGEEITLTCSASSSVSYMHWYQQKSGTSPKLLIYRTSNLASGVPFRFSGSGSGTFYSLTISSVEAEDAADYYCHQWSMYTFGGGTKLEIK | no binding (tested: 0.1 µg/ml antibody) |  | 
anti-human VEGF receptor Flt-1 mouse monoclonal antibody KM1732 (antibody, mouse IgG1, V domains shown, mouse IgG1; hybridoma FERM BP-5698) VH: QGQMQQSGAELVKPGASVKLSCKPSGFTFSSNYISWLKQKPGQSLEWIAWIYAGTGDASYNQKFTAKAHVTVDTSSSTAYMQLSSLTTEDSAIYYCARHGGDGYWFAYWGQGTLVTVSA VL: QLVLTQSPAIMSASQGEKVTMTCSASSSVSYMHWYQQKSGTSPKRWIYDTSKLPSGVPARFSGSGSGTSYSLTISSMEAEDAATYYCQQWSSNPPTFGAGTKLELK | no binding (tested: 0.1 µg/ml antibody) |  | inhibition ratio [1]: 83.1%; IC50 [2]: 1.1 µg/mL; IC50 [4]: 0.05 µg/mL
anti-human VEGF receptor Flt-1 human chimeric antibody KM2532 (antibody, V domains shown, V regions of KM1732 joined to the human antibody C regions of vector pKANTEX93 (WO 97/10354); IgG type of about 150 kDa; Expressed in YB2/0 cells; also called p42532 [sic]) VH: QGQMQQSGAELVKPGASVKLSCKPSGFTFSSNYISWLKQKPGQSLEWIAWIYAGTGDASYNQKFTAKAHVTVDTSSSTAYMQLSSLTTEDSAIYYCARHGGDGYWFAYWGQGTLVTVSA VL: QLVLTQSPAIMSASQGEKVTMTCSASSSVSYMHWYQQKSGTSPKRWIYDTSKLPSGVPARFSGSGSGTSYSLTISSMEAEDAATYYCQQWSSNPPTFGAGTKLELK | no binding (tested: 0.1 µg/ml antibody) |  | 
anti-human VEGF receptor Flt-1 human CDR-grafted antibody KM8550 (antibody, V domains shown, also called pKANTEX1750HV0LV0(I)) VH: QVQLVQSGAEVKKPGASVKVSCKASGYTFINYNMHWVRQAPGQGLEWMGAIFPGNGFTSYNQKFKGRVTITVDKSTSTAYMELSSLRSEDTAVYYCARDGDYYFDYWGQGTLVTVSS VL: DIQMTQSPSSLSASVGDRVTITCSASSSVSYMHWYQQKPGKAPKLLIYRTSNLASGVPSRFSGSGSGTDFTLTISSLQPEDFATYYCHQWSMYTFGQGTKVEIK |  | no binding (tested: 5 µg/ml antibody) | 
anti-human VEGF receptor Flt-1 human CDR-grafted antibody KM8551 (antibody, V domains shown, also called pKANTEX1750HV0LV0(IV)) VH: QVQLVQSGAEVKKPGASVKVSCKASGYTFINYNMHWVRQAPGQGLEWMGAIFPGNGFTSYNQKFKGRVTITVDKSTSTAYMELSSLRSEDTAVYYCARDGDYYFDYWGQGTLVTVSS VL: DIVMTQSPDSLAVSLGERATINCSASSSVSYMHWYQQKPGQPPKLLIYRTSNLASGVPDRFSGSGSGTDFTLTISSLQAEDVAVYYCHQWSMYTFGQGTKVEIK |  | no binding (tested: 5 µg/ml antibody) | 

The next lines start with results.

binding result [3] | binding result [5] | Binder | further results
 | no binding (tested: 5 µg/ml antibody) | anti-human VEGF receptor Flt-1 human CDR-grafted antibody KM8554 (antibody, V domains shown, also called pKANTEX1750HV0LV4) VH: QVQLVQSGAEVKKPGASVKVSCKASGYTFINYNMHWVRQAPGQGLEWMGAIFPGNGFTSYNQKFKGRVTITVDKSTSTAYMELSSLRSEDTAVYYCARDGDYYFDYWGQGTLVTVSS VL: DIQMTQSPSSLSASVGEEVTITCSASSSVSYMHWYQQKPGKAPKLLIYRTSNLASGVPSRFSGSGSGTFYTLTISSLQPEDFATYYCHQWSMYTFGQGTKVEIK | 
 | no binding (tested: 5 µg/ml antibody) | anti-human VEGF receptor Flt-1 human CDR-grafted antibody KM8555 (antibody, V domains shown, also called pKANTEX1750HV3LV4) VH: QVQLVQSGAEVKKPGASVKVSCKASGYTFINYNMHWVRQAPGQGLEWMGAIFPGNGFTSYNQKFKGRVTITVDKSTSTAYMQLRSLRSEDTAVYFCARDGDYYFDYWGQGTLVTVSS VL: DIQMTQSPSSLSASVGEEVTITCSASSSVSYMHWYQQKPGKAPKLLIYRTSNLASGVPSRFSGSGSGTFYTLTISSLQPEDFATYYCHQWSMYTFGQGTKVEIK | 
 | no binding (tested: 5 µg/ml antibody) | anti-human VEGF receptor Flt-1 human CDR-grafted antibody KM8553 (antibody, V domains shown, also called pKANTEX1750HV3LV0(IV)) VH: QVQLVQSGAEVKKPGASVKVSCKASGYTFINYNMHWVRQAPGQGLEWMGAIFPGNGFTSYNQKFKGRVTITVDKSTSTAYMQLRSLRSEDTAVYFCARDGDYYFDYWGQGTLVTVSS VL: DIVMTQSPDSLAVSLGERATINCSASSSVSYMHWYQQKPGQPPKLLIYRTSNLASGVPDRFSGSGSGTDFTLTISSLQAEDVAVYYCHQWSMYTFGQGTKVEIK | 
 | no binding (tested: 5 µg/ml antibody) | anti-human VEGF receptor Flt-1 human CDR-grafted antibody KM8552 (antibody, V domains shown, also called pKANTEX1750HV3LV0(I)) VH: QVQLVQSGAEVKKPGASVKVSCKASGYTFINYNMHWVRQAPGQGLEWMGAIFPGNGFTSYNQKFKGRVTITVDKSTSTAYMQLRSLRSEDTAVYFCARDGDYYFDYWGQGTLVTVSS VL: DIQMTQSPSSLSASVGDRVTITCSASSSVSYMHWYQQKPGKAPKLLIYRTSNLASGVPSRFSGSGSGTDFTLTISSLQPEDFATYYCHQWSMYTFGQGTKVEIK | 
